# Patent publication US20190071480A1 (Biogen, published 2019)
# Bridges are numbered along the chain shown (N, C = ends).
# T1: extracellular domain of activin receptor type IIB (ActRIIBecd), biotinylated (Homo sapiens (Human), UniProt Q13705 27-117, amino-biotinylated with amine-PEG3-Biotin)
# T1 construct: immobilised on a streptavidin-coated sensor chip; also called biotinylated ActRIIBecd; extracellular domain of ActRIIB
# T1 sequence: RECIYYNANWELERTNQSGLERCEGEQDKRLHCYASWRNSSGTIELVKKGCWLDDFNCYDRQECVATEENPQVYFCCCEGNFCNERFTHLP
# Key:
# [1] = biological target: T1, extracellular domain of activin …; test: Mean KD column of Table 5; method not restated (BIAcore as Example 5); species also listed in Table 4
# Procedure: (§1) Biosensor experiments. In one embodiment, experiments were performed on a BIAcore™ T100/T200 instrument (Pharmacia Biosensor AB) in the multichannel mode (serial flow path involving flow cells 1+2+3+4). Flow rate was 10 μl/min; temperature was 25° C.; and data were recorded at 2.5 points/s. All four segments of a sensor chip CMS were coated with streptavidin (Sigma) to a density of 2000 pg/mm² (2000 resonance units) by the aminocoupling procedure. ActRIIBecd (10 mg) and amine-PEG3-Biotin (10 mg, Pierce, Rockford, Ill.) were dissolved in 200 μl H₂O and 10 mg NaCNBH₃ was added to prepare biotinylated ActRIIBecd. The reaction mixture was heated at 70° C. for 24 h, after that a further 10 mg NaCNBH₃ was added and the reaction was heated at 70° C. for another 24 h. After cooling to room temperature, the mixture was desalted with the spin column (3,000 molecular weight cut off (MWCO)). Biotinylated ActRIIBecd was collected, freeze-dried and used for streptavidin (SA) chip preparation. Amino-biotinylated ActRIIBecd was then immobilized independently on flow cells 2-4 for 10 minutes at a flow rate of 5 μL/min and a concentration of 20 μM in 10 mM sodium acetate, pH 4.0, at a density of 50-250 resonance units (RU). The stored polypeptides were dissolved in glycine buffer (2.5 g of glycine, 0.5 g of sucrose, 370 mg of L-glutamate, 10 mg of sodium chloride, and 10 mg of Tween 80 in 100 mL water, pH 4.5) to prepare 10 mg/mL solution and then diluted with previous glycine buffer to prepare analytes with various concentration. Sensograms were recorded during flow of the analyte (the ActRIIBecd-associated polypeptides (i.e., domains) as previously described) first through flow cell 1 (control) then through flow cell 2 (biotinylated ActRIIBecd). The sensogram obtained for flow cell 1 was subtracted from the sensogram obtained for flow cell 2. The sensograms obtained at 1.11, 3.33, 10, 30, and 90 nM analyte were evaluated for equilibrium binding, association rate, and dissociation rate by using the programs supplied with the instrument (BIA evaluation 2.1; Software Handbook. 1995; Pharmacia Biosensor AB).
# [2] = biological target: T1, extracellular domain of activin …; test: BIAcore SPR as Example 5 (method not restated); SD ±1.37 nM
# Procedure: as §1, with “Biotinylated ActRIIBecd was collected, freeze-dried and used for streptavidin (SA) chip preparation. Amino-biotinylated ActRIIBecd was then immobilized independently on flow cells 2-4 for 10 minutes at a flow rate of 5 μL/min and a concentration of 20 μM in 10 mM sodium acetate, pH 4.0, at a density of 50-250 resonance units (RU). The stored polypeptides were dissolved in glycine buffer (2.5 g of glycine, 0.5 g of sucrose, 370 mg of L-glutamate, 10 mg of sodium chloride, and 10 mg of Tween 80 in 100 mL water, pH 4.5) to prepare 10 mg/mL solution and then diluted with previous glycine buffer to prepare analytes with various concentration.” left out, “The sensogram obtained for flow cell 1 was subtracted from the sensogram obtained for flow cell 2.” left out
# [3] = biological target: T1, extracellular domain of activin …; test: BIAcore SPR as Example 5 (method not restated); SD ±3.15 nM
# Procedure: as §1, with “Biotinylated ActRIIBecd was collected, freeze-dried and used for streptavidin (SA) chip preparation. Amino-biotinylated ActRIIBecd was then immobilized independently on flow cells 2-4 for 10 minutes at a flow rate of 5 μL/min and a concentration of 20 μM in 10 mM sodium acetate, pH 4.0, at a density of 50-250 resonance units (RU). The stored polypeptides were dissolved in glycine buffer (2.5 g of glycine, 0.5 g of sucrose, 370 mg of L-glutamate, 10 mg of sodium chloride, and 10 mg of Tween 80 in 100 mL water, pH 4.5) to prepare 10 mg/mL solution and then diluted with previous glycine buffer to prepare analytes with various concentration.” left out, “The sensogram obtained for flow cell 1 was subtracted from the sensogram obtained for flow cell 2.” left out
# [4] = biological target: T1, extracellular domain of activin …; test: BIAcore SPR, biotinylated ActRIIBecd on chip; SD ±13.51 nM
# Procedure: as §1, with “Biotinylated ActRIIBecd was collected, freeze-dried and used for streptavidin (SA) chip preparation. Amino-biotinylated ActRIIBecd was then immobilized independently on flow cells 2-4 for 10 minutes at a flow rate of 5 μL/min and a concentration of 20 μM in 10 mM sodium acetate, pH 4.0, at a density of 50-250 resonance units (RU). The stored polypeptides were dissolved in glycine buffer (2.5 g of glycine, 0.5 g of sucrose, 370 mg of L-glutamate, 10 mg of sodium chloride, and 10 mg of Tween 80 in 100 mL water, pH 4.5) to prepare 10 mg/mL solution and then diluted with previous glycine buffer to prepare analytes with various concentration.” left out, “The sensogram obtained for flow cell 1 was subtracted from the sensogram obtained for flow cell 2.” left out
# [5] = biological target: T1, extracellular domain of activin …; test: BIAcore SPR, biotinylated ActRIIBecd on chip; SD ±14.11 nM
# Procedure: as §1, with “Biotinylated ActRIIBecd was collected, freeze-dried and used for streptavidin (SA) chip preparation. Amino-biotinylated ActRIIBecd was then immobilized independently on flow cells 2-4 for 10 minutes at a flow rate of 5 μL/min and a concentration of 20 μM in 10 mM sodium acetate, pH 4.0, at a density of 50-250 resonance units (RU). The stored polypeptides were dissolved in glycine buffer (2.5 g of glycine, 0.5 g of sucrose, 370 mg of L-glutamate, 10 mg of sodium chloride, and 10 mg of Tween 80 in 100 mL water, pH 4.5) to prepare 10 mg/mL solution and then diluted with previous glycine buffer to prepare analytes with various concentration.” left out, “The sensogram obtained for flow cell 1 was subtracted from the sensogram obtained for flow cell 2.” left out
# [6] = biological target: T1, extracellular domain of activin …; test: BIAcore SPR as Example 5 (method not restated); SD ±2.45 nM
# Procedure: as §1, with “Biotinylated ActRIIBecd was collected, freeze-dried and used for streptavidin (SA) chip preparation. Amino-biotinylated ActRIIBecd was then immobilized independently on flow cells 2-4 for 10 minutes at a flow rate of 5 μL/min and a concentration of 20 μM in 10 mM sodium acetate, pH 4.0, at a density of 50-250 resonance units (RU). The stored polypeptides were dissolved in glycine buffer (2.5 g of glycine, 0.5 g of sucrose, 370 mg of L-glutamate, 10 mg of sodium chloride, and 10 mg of Tween 80 in 100 mL water, pH 4.5) to prepare 10 mg/mL solution and then diluted with previous glycine buffer to prepare analytes with various concentration.” left out, “The sensogram obtained for flow cell 1 was subtracted from the sensogram obtained for flow cell 2.” left out
# [7] = biological target: T1, extracellular domain of activin …; test: BIAcore SPR as Example 5 (method not restated); SD ±1.72 nM
# Procedure: as §1, with “Biotinylated ActRIIBecd was collected, freeze-dried and used for streptavidin (SA) chip preparation. Amino-biotinylated ActRIIBecd was then immobilized independently on flow cells 2-4 for 10 minutes at a flow rate of 5 μL/min and a concentration of 20 μM in 10 mM sodium acetate, pH 4.0, at a density of 50-250 resonance units (RU). The stored polypeptides were dissolved in glycine buffer (2.5 g of glycine, 0.5 g of sucrose, 370 mg of L-glutamate, 10 mg of sodium chloride, and 10 mg of Tween 80 in 100 mL water, pH 4.5) to prepare 10 mg/mL solution and then diluted with previous glycine buffer to prepare analytes with various concentration.” left out, “The sensogram obtained for flow cell 1 was subtracted from the sensogram obtained for flow cell 2.” left out
binder,measurement,setting,value
"SEQ ID NO: 316, cysteine pairs C67-C71^a, C8-C41^a, C9-C43^a, C109-C109^b (designed binder, disulfides C67-C71 (intra), C8-C41 (intra), C9-C43 (intra), C109-C109 (inter), homodimer by intermolecular disulfide) NSKDPKACCVPTELSAPSPLYLDENEKPVLKNYQDMVVHGCGCRVDFKDVGWNDHAVAPPGYHAFYCHGECPFPLADHLNSDNHAIVQTKVNSVGQAKRKGYKRLKSSCKRHPLY",Kd,[1],5.34 nM
same,Kd,[2],5.34 nM
"SEQ ID NO: 242, cysteine pairs C29-C30^a (designed binder, disulfide 29-30) GQAKRKGYKRLKSSCKRHPLYNSKDPKACCVPTELSAPSPLYLDENEKPVLKNYQDMVVHGCGCR",Kd,[1],48.7 nM
same,Kd,[3],48.7 nM
Recombinant polypeptide of clones 15 + 10 (designed binder) VDFSDVGWNDWIVAPPGYHAFYCHGECPFPLADHLNSTNHAIVQTLVNSVAQAKHKQRKRLKSSCKRHPLY,Kd,[4],29.7 nM
VDFSDVGWNDWIVAPPGYHAFYCHGECPFPLADHLNSTNHAIVQTLVNSV [Clone No. 15 domain (ActRIIBecd-associated polypeptide)],Kd,[5],39.5 nM
"SEQ ID NO: 300, cysteine pairs C23-C79^a (designed binder, disulfides C23-C79 (intra)) VDFKDVGWNDHAVAPPGYHAFYCHGECPFPLADHLNSDNHAIVQTKVNSVGQAKRKGYKRLKSSCKRHPLYNSKDPKACCVPTELSAPSPLYLDENEKPVLKNYQDMVVHGCGCR",Kd,[1],32.7 nM
same,Kd,[6],32.7 nM
"SEQ ID NO: 300, cysteine pairs C23-C27^a, C65-C65^b, C79-C112^b, C80-C114^b (designed binder, disulfides C23-C27 (intra), C65-C65 (inter), C79-C112 (inter), C80-C114 (inter), homodimer by intermolecular disulfide) VDFKDVGWNDHAVAPPGYHAFYCHGECPFPLADHLNSDNHAIVQTKVNSVGQAKRKGYKRLKSSCKRHPLYNSKDPKACCVPTELSAPSPLYLDENEKPVLKNYQDMVVHGCGCR",Kd,[1],6.44 nM
same,Kd,[7],6.44 nM
